Measurements published in patent US20090202550A1 (WILEX, published 2009).

B1: monoclonal antibody 7G1 (antibody, V domains shown)
VH: VQLQESGPELKKPGETVKISCKASGYTFTDYSMHWVKQAPGKGLKCMGWINTETTKSTYADDFKGRFALSLETSASTVYLQISNLKNEDTATYFCAREASYGEFDYWGQGTTVTVSS
VL: DIVLTQSPASLAVSLGQRATISCRASKSVSTSGYSYMHWYQQKPGQPPKLLIYLASNLESGVPARFSGSGSGTDFTLDIHPVEEEDAATYYCQHSRELPYTFGGGTKLELK

What was measured:
[1] = target: FPRL1 on freshly isolated monocytes (human) (UniProt P25090); assay: cell-based or functional assay
FPRL1 on freshly isolated monocytes (human), sequence (P25090 whole entry): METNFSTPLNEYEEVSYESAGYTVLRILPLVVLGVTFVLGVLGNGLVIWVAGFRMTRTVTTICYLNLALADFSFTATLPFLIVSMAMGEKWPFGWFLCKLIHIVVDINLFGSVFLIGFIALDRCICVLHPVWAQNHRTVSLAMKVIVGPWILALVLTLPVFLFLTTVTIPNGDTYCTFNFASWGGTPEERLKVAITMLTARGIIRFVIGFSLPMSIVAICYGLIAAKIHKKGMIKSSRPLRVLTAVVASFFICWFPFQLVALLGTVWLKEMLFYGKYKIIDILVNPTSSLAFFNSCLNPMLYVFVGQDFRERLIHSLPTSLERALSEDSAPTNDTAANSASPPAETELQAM

[2] = target: full length GPI-linked D1D2D3 (cell surface uPAR) (human) (UniProt Q03405); assay: cell-based or functional assay
full length GPI-linked D1D2D3 (cell surface uPAR) (human), sequence (Q03405 23-305, one chain of several): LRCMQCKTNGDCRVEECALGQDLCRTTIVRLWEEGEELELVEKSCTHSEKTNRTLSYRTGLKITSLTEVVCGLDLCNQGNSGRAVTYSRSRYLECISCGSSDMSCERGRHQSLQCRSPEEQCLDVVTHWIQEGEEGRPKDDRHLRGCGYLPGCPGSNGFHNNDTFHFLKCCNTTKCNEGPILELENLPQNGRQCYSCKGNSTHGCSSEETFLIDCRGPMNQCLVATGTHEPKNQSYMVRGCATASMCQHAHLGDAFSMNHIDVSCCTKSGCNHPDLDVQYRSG

[3] = target: T1, soluble recombinant uPAR fragment D2D3 93-274 (human, UniProt Q03405 115-296); assay: standard ELISA, coated purified protein, 7G1 as detecting antibody (FIG. 7A)
T1 construct: Purified from COS-7 supernatant on an anti-FLAG column; Mature-protein numbering
T1 sequence (Q03405 other isoform, or with tags, fused parts or gaps limits assumed): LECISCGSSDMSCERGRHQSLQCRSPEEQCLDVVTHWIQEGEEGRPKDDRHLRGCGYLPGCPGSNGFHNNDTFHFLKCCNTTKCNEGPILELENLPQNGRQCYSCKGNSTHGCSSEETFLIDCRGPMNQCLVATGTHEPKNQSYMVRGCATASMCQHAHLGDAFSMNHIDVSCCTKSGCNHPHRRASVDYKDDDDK

Row | Molecule | % induced migration of monocytes, MMK-1 as chemoattractant, rabbit IgG control present [1] [%] | Migration fold increase, MMK-1 as chemoattractant, rabbit IgG control present [1] [fold] | % induced migration (ATF) of monocytes, antibody 50 µg/ml [2] [%] | % of inhibition (referred to MOPC treatment) [2] [%] | Migration fold increase [2] [fold] | fold lower recognition than of D2D3 84-274 [3] [fold]
1 | MMK-1, FPRL1 ligand (peptide) | 303 | 2.94 |  |  |  | 
2 | B1 |  |  | 210 | 10 | 2.44 | ≥ 100
